Test results reported in patent US20260184768A1 (Regeneron, published 2026).

T1: PcrV (aa136-257).6xhis (Pseudomonas aeruginosa)
T1 chain: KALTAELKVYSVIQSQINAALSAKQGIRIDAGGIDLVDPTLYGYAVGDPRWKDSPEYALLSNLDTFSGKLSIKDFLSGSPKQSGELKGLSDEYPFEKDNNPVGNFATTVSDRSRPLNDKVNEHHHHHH


How the values were obtained:
[1] = target: T2, PcrV of P. aeruginosa strain 6077 (Pseudomonas aeruginosa strain 6077); assay: cell-based or functional assay
[2] = target: T3, PcrV of P. aeruginosa strain ATCC 700888 (Pseudomonas aeruginosa strain ATCC …); assay: cell-based or functional assay
[3] = target: T2, PcrV of P. aeruginosa strain 6077; assay: cell-based or functional assay; remark: listed apart in the source
[4] = target: T3, PcrV of P. aeruginosa strain ATCC 700888; assay: cell-based or functional assay; remark: listed apart in the source
[5] = target: T4, recombinant full-length P. aeruginosa PcrV (Pseudomonas aeruginosa); assay: ELISA, PcrV coated on plate, chemiluminescence
T4 construct: Coated on ELISA plates; also called Full length PcrV; Full length PerV
Experimental: (§1) Anti-PcrV monoclonal antibodies (mAbs) were assessed by ELISA for their ability to bind to recombinant PcrV proteins. […] The following morning, plates were washed three times with wash buffer (Imidazole buffered saline with Tween-20) and blocked for 1.5 hours at 25° C. with 200 μl of blocking buffer (3% BSA in PBS). […] Wells were washed three times and then incubated with 100 ng/ml anti-human HRP secondary antibody per well for one hour at 25° C. 100 μl of SuperSignal™ ELISA Pico Chemiluminescent Substrate was added to each well and signal was detected (Victor X3 plate reader, Perkin Elmer). Luminescence values were analyzed by a four-parameter logistic equation over a 10-point response curve (GraphPad Prism).

[6] = target: PcrV 136-233 (Pseudomonas aeruginosa); assay: ELISA, PcrV coated on plate, chemiluminescence
Experimental: as §1

[7] = target: T5, full-length PcrV.6xhis (Pseudomonas aeruginosa); assay: SPR (Biacore T200), mAb captured via anti-human Fc, PcrV injected, 25 C
T5 construct: Recombinant full-length V-tip protein of the type 3 secretion system, His-tagged; also called full-length PcrV with a C-terminal hexahistidine tag
Experimental: (§2) The equilibrium dissociation constant (KD) for different PcrV reagents binding to purified anti-PcrV monoclonal antibodies were determined using a real-time surface plasmon resonance based Biacore T200 biosensor. All binding studies were performed in 10 mM HEPES, 150 mM NaCl, 3.4 mM EDTA and 0.05% v/v Tween-20, pH 7.4 (HBS-EP) running buffer at 25° C. and 37° C. […] Proteins were injected over the captured anti-PcrV monoclonal antibody surface for 4 minutes at a flow rate of 50 μL/minute, while the dissociation of monoclonal antibody bound PcrV reagent was monitored for 10 minutes in HBS-EP running buffer.
(§3) Kinetic association (kₐ) and dissociation (kd) rate constants were determined by fitting the real-time sensorgrams to a 1:1 binding model using Scrubber 2.0c curve fitting software. Binding dissociation equilibrium constants (KD) and dissociative half-lives (t½) were calculated from the kinetic rate constants as:

[8] = target: T5, full-length PcrV.6xhis; assay: SPR (Biacore T200), mAb captured via anti-human Fc, PcrV injected, 37 C
Experimental: as §2, §3

[9] = target: T1, PcrV (aa136-257).6xhis; assay: SPR (Biacore T200), mAb captured via anti-human Fc, PcrV injected, 25 C
Experimental: as §2, §3

[10] = target: T1, PcrV (aa136-257).6xhis; assay: SPR (Biacore T200), mAb captured via anti-human Fc, PcrV injected, 37 C
Experimental: as §2, §3

Binder | A549 Cytotoxicity Assay (IC50) [1] [nM] | A549 Cytotoxicity Assay (IC50) [2] [nM] | 90 nM Ag Bound (RU) [7] [RU] | Kd [7] [nM] | koff [7] [s⁻¹] | kon [7] [M⁻¹ s⁻¹] | t½ [7] [h] | 90 nM Ag Bound (RU) [8] [RU] | Kd [8] [nM] | koff [8] [s⁻¹] | kon [8] [M⁻¹ s⁻¹] | t½ [8] [h] | Kd [9] [nM] | koff [9] [s⁻¹] | kon [9] [M⁻¹ s⁻¹] | t½ [9] [h] | Kd [10] [nM] | koff [10] [s⁻¹] | kon [10] [M⁻¹ s⁻¹] | t½ [10] [h] | also measured
H1H29329P (antibody, V domains shown) VH: EVQLVESGGGLVQPGGSLRLSCAASGFTFSDHEMNWVRQAPGKGLEWISYIGSGVVTMYYADSVRGRFTISRDNAKKTLYLQMNSLRAEDTAVYYCARDRGYYFGSEAFHYWGQGTLVTVSS VL: DIQMTQSPSTLSASVGDRVTITCRASQSISNWLAWYQQKPGKAPKLLIYKSSSLESGVPSRFSGSGSGTEFTLTISSLQPDDFATYYCQQYKSYSLTFGGGTKVEIKR | 10.8 | 54.3 | 81 | 5.16 | 0.00095 | 184000 | 0.203 | 59.6 | 9.12 | 0.00505 | 554000 | 0.0383 | 15 | 0.0023 | 153000 | 0.0833 | 107 | 0.011 | 103000 | 0.0167 | Rabbit RBC Hemolysis Assay (IC50) [3]: 56.4 nM; Rabbit RBC Hemolysis Assay (IC50) [4]: 2.39 nM; EC50 [5]: 0.597 nM; EC50 [6]: 7.44 nM
H1H29339P (antibody, V domains shown) VH: EVQLVESGGDLVQPGGSLRLSCAASGFTFNTYAMNWVRQAPGKGLEWVAVIGGSGYSTNYADSVKGRFTISRDNSKNTLYLQMNSLRTEDTAVYYCAKEGNIVALYWYFDLWGRGTLVTVSS VL: DIQMTQSPSSLSASVGDRVTITCRASQSISRYLNWYQQKPGKAPKLLIYAASSLQGGVPSKFSGSGSGTDFTLTISSLQPEDFATYYCQQSSTTPLTFGGGTKVEIKR | 0.0333 | 7.82 | 140 | ≤ 0.0274 | ≤ 1e-05 | 365000 | ≥ 19.2 | 130 | 0.0197 | ≤ 1e-05 | 508000 | ≥ 19.2 | 0.0955 | 2.76e-05 | 293000 | 6.97 | 0.186 | 8.15e-05 | 435000 | 2.36 | Rabbit RBC Hemolysis Assay (IC50) [3]: 2.3 nM; Rabbit RBC Hemolysis Assay (IC50) [4]: 5.59 nM; EC50 [5]: 1.96 nM; EC50 [6]: 0.856 nM
H1H29336P (antibody, V domains shown) VH: EVQLVESGGGLVQPGGSLRLSCAASGFTFSSYAMTWVRQAPGKGLEWVSSIRGSGYSSDYADSVKGRFTISRDNSENTVYLQMNRLRAEDTAVYYCAKERSVTAYYYYGMDVWGQGTTVTVSS VL: DIQLTQSPSFLSASVGDRVTITCWASQDISSFLTWYQQKPGIAPKLLIYTASTLQSGVPSRFSGSGSGTEFTLTISSLQPEDFATYYCQQLKSYPLTFGGGTKVEIKR | 0.84 | 6.37 | 102 | ≤ 0.0204 | ≤ 1e-05 | 490000 | ≥ 19.2 | 80.7 | ≤ 0.0116 | ≤ 1e-05 | 860000 | ≥ 19.2 | 0.0408 | 1.48e-05 | 367000 | 13.1 | 0.0809 | 4.36e-05 | 544000 | 4.41 | Rabbit RBC Hemolysis Assay (IC50) [3]: 0.205 nM; Rabbit RBC Hemolysis Assay (IC50) [4]: 0.81 nM; EC50 [5]: 2.28 nM; EC50 [6]: 1.03 nM
H1H29332P (antibody, V domains shown) VH: EVQLVESGGDLVQPGGSLRLSCKASGFTFSTFAMNWVRQAPGRGLEWVSAIGASGYSTYYVDSMKGRFTISRDNSKNTLYLQMNSLGAEDTAVYYCAKEYSVSSNYYYGMDVWGQGTTVTVSS VL: DIQMTQSPSSLSASVGDRVTITCRASQTIRRYLNWYQQKAGKAPKLLIYAASSLLSGVPSRFSASGSGTDFTLTISSLQPEDFSTYYCQQTYSIPITFGQGTRLEIKR | 6.47 | 32.9 | 152 | 0.0548 | 1.3e-05 | 237000 | 14.8 | 163 | 0.092 | 2.68e-05 | 293000 | 7.19 | 0.285 | 3.83e-05 | 133000 | 5.03 | 0.595 | 0.000106 | 178000 | 1.82 | Rabbit RBC Hemolysis Assay (IC50) [3]: 15.3 nM; Rabbit RBC Hemolysis Assay (IC50) [4]: 4.06 nM; EC50 [5]: 2.12 nM; EC50 [6]: 0.814 nM
REGN3514 (antibody, V domains shown, also called Control I; Control I-REGN3514) VH: EMQLLESGGGLVQPGGSLRLSCAASGFTFSSYAMNWVRQAPGEGLEWVSAITISGITAYYTDSVKGRFTISRDNSKNTLYLQMNSLRAGDTAVYYCAKEEFLPGTHYYYGMDVWGQGTTVTVSS VL: AIQMTQSPSSLSASVGDRVTITCRASQGIRNDLGWYQQKPGKAPKLVIYSASTLQSGVPSRFSGSGSGTDFTLSISSLQPDDFATYYCLQDYNYPWTFGQGTKVEIKR | 0.807 | 17.8 | 169 | 0.146 | 3.9e-05 | 267000 | 4.94 | 141 | 0.453 | 0.000196 | 431000 | 0.985 | 0.83 | 0.000122 | 147000 | 1.58 | 2.42 | 0.000596 | 246000 | 0.323 | Rabbit RBC Hemolysis Assay (IC50) [3]: 2.44 nM; Rabbit RBC Hemolysis Assay (IC50) [4]: 1.01 nM; EC50 [5]: 0.696 nM; EC50 [6]: 7.59 nM
REGN3977 (antibody, V domains shown, also called Control III; REGN3977-Control III) VH: QVQLKQSGPGLVQPSQSLSITCTVSGFSLTSYGVHWVRQSPGKGLEWLGVIWSGGDTDYNAAFISRLSISKDNSKSQLFFKMNSLRATDTAIYYCARNRGDIYYDFTYAMDYWGQGTSVTVSS VL: DIQMTQSPASLSASVGETVTITCRASGNIQNYLAWYQQTQGKSPQLLVYSAKTLADGVPSRFSGSGSGTQYSLKINSLQPEDFGSYYCQHFWSTPYTFGGGTKLEIKR |  |  | 146 | 2.39 | 0.000495 | 207000 | 0.39 | 136 | 3.48 | 0.000917 | 263000 | 0.21 | 4.28 | 0.000956 | 223000 | 0.202 | 11.4 | 0.00245 | 216000 | 0.0783 | 
